T1: human TREM2 (human, UniProt Q9NZC2 19-174, limits assumed)
T1 construct: also called triggering receptor expressed on myeloid cells 2
T1 sequence: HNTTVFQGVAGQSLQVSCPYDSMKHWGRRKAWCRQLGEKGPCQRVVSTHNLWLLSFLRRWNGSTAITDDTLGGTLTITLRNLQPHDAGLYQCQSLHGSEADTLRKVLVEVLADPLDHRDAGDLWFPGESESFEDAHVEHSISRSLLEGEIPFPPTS


Assays:
human TREM2 [1] = molecular target: T1, human TREM2; experiment: 2nd screen, 100 nM
human TREM2 [2] = molecular target: T1, human TREM2; experiment: 1st screen, 110 nM Ab

| Binder | Binding Signal (human TREM2 [1]) | Binding Signal (human TREM2 [2]) |
| --- | --- | --- |
| V20 (antibody, V domains shown, also called 6E7 variant V20) VH: EVQLVQSGAEVKKPGESLKISCKGSGYSFTSYWIAWVRQMPGKGLEWMGRIYPGDSDTRYSPSFQGQVTISADKSISTAYLQWSSLKASDTAMYFCARQRTFYYDSSDYFDYWGQGTLVTVSS VL: DIQMTQSPSSVSASVGDRVTITCRASQGISSWLAWYQQKPGKAPKLLIYAASSLQNGVPSRFSGSGSGTDFTLTISSLQPEDFATYFCQQADSFPRTFGQGTKLEIK | 0.52 fold over 6E7 parental antibody | 0.18 fold over 6E7 parental antibody |
| V33 (antibody, V domains shown, also called 6E7 variant V33; LV-16/HV-203) VH: EVQLVQSGAEVKKPGESLKISCKGSGYSFTSYWIAWVRQMPGKGLEWMGIIYPGDSDTRYSPSFQGQVTISADKSISTAYLQWSSLKASDTAMYFCARQRTFYGDSSDYFDYWGQGTLVTVSS VL: DIQMTQSPSSVSASVGDRVTITCRASQGISSWLAWYQQKPGKAPKLLIYAASSLQNGVPSRFSGSGSGTDFTLTISSLQPEDFATYFCQQADSFPRTFGQGTKLEIK | 0.34 fold over 6E7 parental antibody | 0.23 fold over 6E7 parental antibody |
| V32 (antibody, V domains shown, also called 6E7 variant V32) VH: EVQLVQSGAEVKKPGESLKISCKGSGYSFTSYWIAWVRQMPGKGLEWMGIIYPGDSDTRYSNSFQGQVTISADKSISTAYLQWSSLKASDTAMYFCARQRTFYYDSSDYFDYWGQGTLVTVSS VL: DIQMTQSPSSVSASVGDRVTITCRASQGISSWLAWYQQKPGKAPKLLIYAASSLQNGVPSRFSGSGSGTDFTLTISSLQPEDFATYFCQQADSFPRTFGQGTKLEIK | 0.89 fold over 6E7 parental antibody | 0.82 fold over 6E7 parental antibody |
| V22 (antibody, V domains shown, also called 6E7 variant V22) VH: EVQLVQSGAEVKKPGESLKISCKGSGYSFTSYWIAWVRQMPGKGLEWMGIIYPGDSDTRYSPSFQGQVTISADKSISTAYLQWSSLKASDTAMYFCARQRTFYYDSSDYFDYWGQGTLVTVSS VL: DIQMTQSPSSVSASVGDRVTITCRASQGISSWLAWYQQKPGKAPKLLIYRASSLQNGVPSRFSGSGSGTDFTLTISSLQPEDFATYFCQQADSFPRTFGQGTKLEIK | 0.71 fold over 6E7 parental antibody | 0.3 fold over 6E7 parental antibody |
| V31 (antibody, V domains shown, also called 6E7 variant V31) VH: EVQLVQSGAEVKKPGESLKISCKGSGYSFTSYWIAWVRQMPGKGLEWMGIIYPGDSETRYSPSFQGQVTISADKSISTAYLQWSSLKASDTAMYFCARQRTFYYDSSDYFDYWGQGTLVTVSS VL: DIQMTQSPSSVSASVGDRVTITCRASQGISSWLAWYQQKPGKAPKLLIYAASSLQNGVPSRFSGSGSGTDFTLTISSLQPEDFATYFCQQADSFPRTFGQGTKLEIK | 0.73 fold over 6E7 parental antibody | 0.61 fold over 6E7 parental antibody |
| V23 (antibody, V domains shown, also called 6E7 variant V23; LV-202/HV-15) VH: EVQLVQSGAEVKKPGESLKISCKGSGYSFTSYWIAWVRQMPGKGLEWMGIIYPGDSDTRYSPSFQGQVTISADKSISTAYLQWSSLKASDTAMYFCARQRTFYYDSSDYFDYWGQGTLVTVSS VL: DIQMTQSPSSVSASVGDRVTITCRASQGISSWLAWYQQKPGKAPKLLIYAASSLQNGVPSRFSGSGSGTDFTLTISSLQPEDFATYFCQQADSFPLTFGQGTKLEIK | 0.4 fold over 6E7 parental antibody | 0.4 fold over 6E7 parental antibody |
| V30 (antibody, V domains shown, also called 6E7 variant V30; LV-16/HV-202) VH: EVQLVQSGAEVKKPGESLKISCKGSGSSFTSYWIAWVRQMPGKGLEWMGIIYPGDSDTRYSPSFQGQVTISADKSISTAYLQWSSLKASDTAMYFCARQRTFYYDSSDYFDYWGQGTLVTVSS VL: DIQMTQSPSSVSASVGDRVTITCRASQGISSWLAWYQQKPGKAPKLLIYAASSLQNGVPSRFSGSGSGTDFTLTISSLQPEDFATYFCQQADSFPRTFGQGTKLEIK | 0.72 fold over 6E7 parental antibody | 0.79 fold over 6E7 parental antibody |
| V21 (antibody, V domains shown, also called 6E7 variant V21) VH: EVQLVQSGAEVKKPGESLKISCKGSGYSFTSYWIAWVRQMPGKGLEWMGIIYPGDSDTRYSPSFQGQVTISADKSISTAYLQWSSLKASDTAMYFCARQRTFYYDSSDFFDYWGQGTLVTVSS VL: DIQMTQSPSSVSASVGDRVTITCRASQGISSWLAWYQQKPGKAPKLLIYAASSLQNGVPSRFSGSGSGTDFTLTISSLQPEDFATYFCQQADSFPRTFGQGTKLEIK | 0.68 fold over 6E7 parental antibody | 0.76 fold over 6E7 parental antibody |

Other lines, results leading:

| Binding Signal (human TREM2 [1]) | Binding Signal (human TREM2 [2]) | Binder |
| --- | --- | --- |
| 0.33 fold over 6E7 parental antibody | 0.2 fold over 6E7 parental antibody | V43 (antibody, V domains shown, also called 6E7 variant V43) VH: EVQLVQSGAEVKKPGESLKISCKGSGYSFTSYWIAWVRQMPGKGLEWMGIIYPGDSGTRYSPSFQGQVTISADKSISTAYLQWSSLKASDTAMYFCARQRTFYYDSSDYFDYWGQGTLVTVSS VL: DIQMTQSPSSVSASVGDRVTITCRASQGISSWLAWYQQKPGKAPKLLIYAASSLQNGVPSRFSGSGSGTDFTLTISSLQPEDFATYFCQQADSFPRTFGQGTKLEIK |
| 0.29 fold over 6E7 parental antibody | 0.21 fold over 6E7 parental antibody | V35 (antibody, V domains shown, also called 6E7 variant V35) VH: EVQLVQSGAEVKKPGESLKISCKGSGYSFTSYWIAWVRQMPGKGLEWMGIIYPGDSDTRYSPSFQGQVTISADKSISTAYLQWSSLKASDTAMYFCARQRTFYYDSSDYFDYWGQGTLVTVSS VL: DIQMTQSPSSVSASVGDRVTITCRASQGISSWLAWYQQKPGKAPKLLIYAASSLQNGVPSRFSGSGSGTDFTLTISSLQPEDFATYFCQQAYSFPRTFGQGTKLEIK |
| 0.54 fold over 6E7 parental antibody | 0.55 fold over 6E7 parental antibody | V54 (antibody, V domains shown, also called 6E7 variant V54) VH: EVQLVQSGAEVKKPGESLKISCKGSGYSFTSQWIAWVRQMPGKGLEWMGIIYPGDSDTRYSPSFQGQVTISADKSISTAYLQWSSLKASDTAMYFCARQRTFYYDSSDYFDYWGQGTLVTVSS VL: DIQMTQSPSSVSASVGDRVTITCRASQGISSWLAWYQQKPGKAPKLLIYAASSLQNGVPSRFSGSGSGTDFTLTISSLQPEDFATYFCQQADSFPRTFGQGTKLEIK |
| 0.47 fold over 6E7 parental antibody | 0.42 fold over 6E7 parental antibody | V47 (antibody, V domains shown, also called 6E7 variant V47) VH: EVQLVQSGAEVKKPGESLKISCKGSGYSFTSYWIAWVRQMPGKGLEWMGIIYPGDSDTRYSPSFQGQVTISADKSISTAYLQWSSLKASDTAMYFCARQRTFYYDSSDYFDYWGQGTLVTVSS VL: DIQMTQSPSSVSASVGDRVTITCRASQGISSWLAWYQQKPGKAPKLLIYAASSLQNGVPSRFSGSGSGTDFTLTISSLQPEDFATYFCQQADSFPMTFGQGTKLEIK |
| 0.52 fold over 6E7 parental antibody | 0.65 fold over 6E7 parental antibody | V44 (antibody, V domains shown, also called 6E7 variant V44; LV-16/HV-204) VH: EVQLVQSGAEVKKPGESLKISCKGSGYSFTSYWIAWVRQMPGKGLEWMGIIYPSDSDTRYSPSFQGQVTISADKSISTAYLQWSSLKASDTAMYFCARQRTFYYDSSDYFDYWGQGTLVTVSS VL: DIQMTQSPSSVSASVGDRVTITCRASQGISSWLAWYQQKPGKAPKLLIYAASSLQNGVPSRFSGSGSGTDFTLTISSLQPEDFATYFCQQADSFPRTFGQGTKLEIK |
| 0.53 fold over 6E7 parental antibody | 0.43 fold over 6E7 parental antibody | V45 (antibody, V domains shown, also called 6E7 variant V45) VH: EVQLVQSGAEVKKPGESLKISCKGSGYSFTSYWIAWVRQMPGKGLEWMGIIYPGDSDTRYSPSFQGQVTISADKSISTAYLQWSSLKASDTAMYFCARQRTFYYDSSDYFDYWGQGTLVTVSS VL: DIQMTQSPSSVSASVGDRVTITCRASQGISSFLAWYQQKPGKAPKLLIYAASSLQNGVPSRFSGSGSGTDFTLTISSLQPEDFATYFCQQADSFPRTFGQGTKLEIK |
| 0.66 fold over 6E7 parental antibody | 0.24 fold over 6E7 parental antibody | V55 (antibody, V domains shown, also called 6E7 variant V55) VH: EVQLVQSGAEVKKPGESLKISCKGSGYSFTSYWIAWVRQMPGKGLEWMGIIYPGDSDTIYSPSHQGQVTISADKSISTAYLQWSSLKASDTAMYFCARQRTFYYDSSDYFDYWGQGTLVTVSS VL: DIQMTQSPSSVSASVGDRVTITCRASQGISSWLAWYQQKPGKAPKLLIYAASSLQNGVPSRFSGSGSGTDFTLTISSLQPEDFATYFCQQADSFPRTFGQGTKLEIK |
| 0.41 fold over 6E7 parental antibody | 0.45 fold over 6E7 parental antibody | V42 (antibody, V domains shown, also called 6E7 variant V42) VH: EVQLVQSGAEVKKPGESLKISCKGSGYSFTSAWIAWVRQMPGKGLEWMGIIYPGDSDTRYSPSFQGQVTISADKSISTAYLQWSSLKASDTAMYFCARQRTFYYDSSDYFDYWGQGTLVTVSS VL: DIQMTQSPSSVSASVGDRVTITCRASQGISSWLAWYQQKPGKAPKLLIYAASSLQNGVPSRFSGSGSGTDFTLTISSLQPEDFATYFCQQADSFPRTFGQGTKLEIK |
| 0.59 fold over 6E7 parental antibody | 0.23 fold over 6E7 parental antibody | V56 (antibody, V domains shown, also called 6E7 variant V56) VH: EVQLVQSGAEVKKPGESLKISCKGSGYSFTSYWIAWVRQMPGKGLEWMGIIYPGDSDTRYQPSFQGQVTISADKSISTAYLQWSSLKASDTAMYFCARQRTFYYDSSDYFDYWGQGTLVTVSS VL: DIQMTQSPSSVSASVGDRVTITCRASQGISSWLAWYQQKPGKAPKLLIYAASSLQNGVPSRFSGSGSGTDFTLTISSLQPEDFATYFCQQADSFPRTFGQGTKLEIK |
| 1.02 fold over 6E7 parental antibody | 0.34 fold over 6E7 parental antibody | V34 (antibody, V domains shown, also called 6E7 variant V34) VH: EVQLVQSGAEVKKPGESLKISCKGSGYSFTSYWIAWVRQMPGKGLEWMGIIYPGDSDTRYSPSFQGQVTISADKSISTAYLQWSSLKASDTAMYFCARQRTFYYDSSDYFDYWGQGTLVTVSS VL: DIQMTQSPSSVSASVGDRVTITCRASQGISSWLAWYQQKPGKAPKLLIYAASSLQDGVPSRFSGSGSGTDFTLTISSLQPEDFATYFCQQADSFPRTFGQGTKLEIK |
| 0.96 fold over 6E7 parental antibody | 0.83 fold over 6E7 parental antibody | V46 (antibody, V domains shown, also called 6E7 variant V46) VH: EVQLVQSGAEVKKPGESLKISCKGSGYSFTSYWIAWVRQMPGKGLEWMGIIYPGDSDTRYSPSFQGQVTISADKSISTAYLQWSSLKASDTAMYFCARQRTFYYDSSDYFDYWGQGTLVTVSS VL: DIQMTQSPSSVSASVGDRVTITCRASQGISSWLAWYQQKPGKAPKLLIYAASTLQNGVPSRFSGSGSGTDFTLTISSLQPEDFATYFCQQADSFPRTFGQGTKLEIK |
| 0.85 fold over 6E7 parental antibody | 0.84 fold over 6E7 parental antibody | V57 (antibody, V domains shown, also called 6E7 variant V57; LV-203/HV-15) VH: EVQLVQSGAEVKKPGESLKISCKGSGYSFTSYWIAWVRQMPGKGLEWMGIIYPGDSDTRYSPSFQGQVTISADKSISTAYLQWSSLKASDTAMYFCARQRTFYYDSSDYFDYWGQGTLVTVSS VL: DIQMTQSPSSVSASVGDRVTITCAASQGISSWLAWYQQKPGKAPKLLIYAASSLQNGVPSRFSGSGSGTDFTLTISSLQPEDFATYFCQQADSFPRTFGQGTKLEIK |

— patent US20250326839A1 (VIGIL NEUROSCIENCE, published 2025)
